{
  "source": "the RNAGym collection of RNA variant scans (doi:10.7554/elife.80360)",
  "parents": {"B1": {"name": "Hammerhead Ribozyme (parent)", "chain": "ACCGGAUGUGCUUUCCGGUCUGAUGAGUCCGUGAGGACGAAACAG"}},
  "data": [
    {"variants_of": "B1", "test": "self-cleavage, relative activity (ratio to wild type); higher = more cleavage; co-transcriptional", "values": [
      {"variant": "U28C C29G", "self-cleavage": 0.583},
      {"variant": "U28C C29A", "self-cleavage": 0.688},
      {"variant": "U28C C29U", "self-cleavage": 0.688},
      {"variant": "U28A A34G", "self-cleavage": 0.516},
      {"variant": "U28A A34C", "self-cleavage": 0.623},
      {"variant": "U28A A34U", "self-cleavage": 0.678},
      {"variant": "U28C A40C", "self-cleavage": 0.44},
      {"variant": "U28C A40G", "self-cleavage": 0.356},
      {"variant": "U28C A40U", "self-cleavage": 0.307},
      {"variant": "U28C G31U", "self-cleavage": 0.854},
      {"variant": "U28C G31A", "self-cleavage": 1.03},
      {"variant": "U28C G31C", "self-cleavage": 0.769},
      {"variant": "G27U G35U", "self-cleavage": 0.345},
      {"variant": "G27U G35C", "self-cleavage": 0.407},
      {"variant": "G27U G35A", "self-cleavage": 0.334},
      {"variant": "U28G A42C", "self-cleavage": 0.24},
      {"variant": "U28G A42U", "self-cleavage": 0.311},
      {"variant": "U28G A42G", "self-cleavage": 0.264},
      {"variant": "U28C G39U", "self-cleavage": 0.291},
      {"variant": "U28C G39A", "self-cleavage": 0.291},
      {"variant": "U28C G39C", "self-cleavage": 0.371},
      {"variant": "U28A C29G", "self-cleavage": 0.445},
      {"variant": "U28A C29U", "self-cleavage": 0.774},
      {"variant": "U28A C29A", "self-cleavage": 0.682},
      {"variant": "U28G A40G", "self-cleavage": 0.261},
      {"variant": "U28G A40U", "self-cleavage": 0.323},
      {"variant": "U28G A40C", "self-cleavage": 0.383},
      {"variant": "G27U G36C", "self-cleavage": 0.304},
      {"variant": "G27U G36A", "self-cleavage": 0.303},
      {"variant": "G27U G36U", "self-cleavage": 0.328},
      {"variant": "U28G A34C", "self-cleavage": 0.411},
      {"variant": "U28G A34U", "self-cleavage": 0.475},
      {"variant": "U28G A34G", "self-cleavage": 0.793},
      {"variant": "U28A A44G", "self-cleavage": 0.596},
      {"variant": "U28A A44U", "self-cleavage": 0.402},
      {"variant": "U28A A44C", "self-cleavage": 0.38},
      {"variant": "U28G A44G", "self-cleavage": 0.673},
      {"variant": "U28G A44C", "self-cleavage": 0.371},
      {"variant": "U28G A44U", "self-cleavage": 0.397},
      {"variant": "U28C C43A", "self-cleavage": 0.289},
      {"variant": "U28C C43U", "self-cleavage": 0.405},
      {"variant": "U28C C43G", "self-cleavage": 0.334},
      {"variant": "U28C C38G", "self-cleavage": 0.575},
      {"variant": "U28C C38A", "self-cleavage": 0.789},
      {"variant": "U28C C38U", "self-cleavage": 1.01},
      {"variant": "G27U C30G", "self-cleavage": 0.297},
      {"variant": "G27U C30A", "self-cleavage": 0.317},
      {"variant": "G27U C30U", "self-cleavage": 0.456},
      {"variant": "U28A U32A", "self-cleavage": 0.824},
      {"variant": "U28A U32C", "self-cleavage": 0.626},
      {"variant": "U28A U32G", "self-cleavage": 0.306},
      {"variant": "U28G C30U", "self-cleavage": 0.83},
      {"variant": "U28G C30A", "self-cleavage": 0.408},
      {"variant": "U28G C30G", "self-cleavage": 0.315},
      {"variant": "G27U G33A", "self-cleavage": 0.754},
      {"variant": "G27U G33C", "self-cleavage": 0.484},
      {"variant": "G27U G33U", "self-cleavage": 0.535},
      {"variant": "U28C U32C", "self-cleavage": 1},
      {"variant": "U28C U32G", "self-cleavage": 0.556},
      {"variant": "U28C U32A", "self-cleavage": 0.984},
      {"variant": "U28G C38A", "self-cleavage": 0.64},
      {"variant": "U28G C38U", "self-cleavage": 0.858},
      {"variant": "U28G C38G", "self-cleavage": 0.542},
      {"variant": "U28C G36U", "self-cleavage": 0.591},
      {"variant": "U28C G36A", "self-cleavage": 0.634},
      {"variant": "U28C G36C", "self-cleavage": 0.297},
      {"variant": "U28C A44C", "self-cleavage": 0.497},
      {"variant": "U28C A44G", "self-cleavage": 1.11},
      {"variant": "U28C A44U", "self-cleavage": 0.599},
      {"variant": "U28C G35U", "self-cleavage": 0.431},
      {"variant": "U28C G35A", "self-cleavage": 0.638},
      {"variant": "U28C G35C", "self-cleavage": 0.534},
      {"variant": "U28G C43A", "self-cleavage": 0.323},
      {"variant": "U28A A40G", "self-cleavage": 0.394},
      {"variant": "U28A A40U", "self-cleavage": 0.41},
      {"variant": "U28A A40C", "self-cleavage": 0.352},
      {"variant": "U28C A41U", "self-cleavage": 0.319},
      {"variant": "U28C A41G", "self-cleavage": 0.364},
      {"variant": "U28C A41C", "self-cleavage": 0.29},
      {"variant": "U28A G39C", "self-cleavage": 0.382},
      {"variant": "U28A G39A", "self-cleavage": 0.422},
      {"variant": "U28A G39U", "self-cleavage": 0.301},
      {"variant": "U28A G35U", "self-cleavage": 0.489},
      {"variant": "U28A G35A", "self-cleavage": 0.405},
      {"variant": "U28A G35C", "self-cleavage": 0.435},
      {"variant": "G27U C38G", "self-cleavage": 0.597},
      {"variant": "G27U C38U", "self-cleavage": 0.683},
      {"variant": "G27U C38A", "self-cleavage": 0.785},
      {"variant": "G27U C29U", "self-cleavage": 0.316},
      {"variant": "U28A G45C", "self-cleavage": 0.365},
      {"variant": "U28A G45U", "self-cleavage": 0.496},
      {"variant": "U28A G45A", "self-cleavage": 0.436},
      {"variant": "U28A A41G", "self-cleavage": 0.398},
      {"variant": "U28A A41U", "self-cleavage": 0.303},
      {"variant": "U28A A41C", "self-cleavage": 0.277},
      {"variant": "G27U G31C", "self-cleavage": 0.462},
      {"variant": "G27U G31A", "self-cleavage": 0.529},
      {"variant": "G27U G31U", "self-cleavage": 0.474},
      {"variant": "U28C G33A", "self-cleavage": 1.16},
      {"variant": "U28C G33U", "self-cleavage": 0.973},
      {"variant": "U28C G33C", "self-cleavage": 0.906},
      {"variant": "U28C A42G", "self-cleavage": 0.251},
      {"variant": "U28C A42C", "self-cleavage": 0.338},
      {"variant": "U28C A42U", "self-cleavage": 0.325},
      {"variant": "U28A C43A", "self-cleavage": 0.292},
      {"variant": "U28A C43G", "self-cleavage": 0.336},
      {"variant": "U28A C43U", "self-cleavage": 0.381},
      {"variant": "U28C A37G", "self-cleavage": 0.914},
      {"variant": "U28C A37U", "self-cleavage": 0.772},
      {"variant": "U28C A37C", "self-cleavage": 0.467},
      {"variant": "G27U G39C", "self-cleavage": 0.314},
      {"variant": "G27U G39A", "self-cleavage": 0.341},
      {"variant": "G27U G39U", "self-cleavage": 0.297},
      {"variant": "G27U C43U", "self-cleavage": 0.366},
      {"variant": "G27U C43A", "self-cleavage": 0.374},
      {"variant": "G27U C43G", "self-cleavage": 0.268},
      {"variant": "U28G A41C", "self-cleavage": 0.348},
      {"variant": "U28G A41G", "self-cleavage": 0.421},
      {"variant": "U28G A41U", "self-cleavage": 0.338},
      {"variant": "U28A C38U", "self-cleavage": 0.703},
      {"variant": "U28A C38A", "self-cleavage": 0.726},
      {"variant": "U28A C38G", "self-cleavage": 0.521},
      {"variant": "U28A", "self-cleavage": 0.822},
      {"variant": "U28G", "self-cleavage": 0.873},
      {"variant": "U28C", "self-cleavage": 1.08},
      {"variant": "U28A G31A", "self-cleavage": 0.856},
      {"variant": "U28A G31C", "self-cleavage": 0.919},
      {"variant": "U28A G31U", "self-cleavage": 0.92},
      {"variant": "U28A C30A", "self-cleavage": 0.376},
      {"variant": "U28A C30U", "self-cleavage": 0.562},
      {"variant": "U28A C30G", "self-cleavage": 0.384},
      {"variant": "U28A A42U", "self-cleavage": 0.341},
      {"variant": "U28A A42G", "self-cleavage": 0.25},
      {"variant": "U28A A42C", "self-cleavage": 0.335},
      {"variant": "G27U G45A", "self-cleavage": 0.363},
      {"variant": "G27U G45U", "self-cleavage": 0.488},
      {"variant": "G27U G45C", "self-cleavage": 0.365},
      {"variant": "U28A G33A", "self-cleavage": 0.829},
      {"variant": "U28A G33U", "self-cleavage": 0.884},
      {"variant": "U28A G33C", "self-cleavage": 1.15},
      {"variant": "U28A G36U", "self-cleavage": 0.438},
      {"variant": "U28A G36C", "self-cleavage": 0.396},
      {"variant": "U28A G36A", "self-cleavage": 0.339},
      {"variant": "U28G A37G", "self-cleavage": 0.45},
      {"variant": "U28G A37C", "self-cleavage": 0.919},
      {"variant": "U28G A37U", "self-cleavage": 0.843},
      {"variant": "G27U U32G", "self-cleavage": 0.417},
      {"variant": "G27U U32A", "self-cleavage": 0.547},
      {"variant": "G27U U32C", "self-cleavage": 0.495},
      {"variant": "U28C G45A", "self-cleavage": 0.628},
      {"variant": "U28C G45U", "self-cleavage": 0.727},
      {"variant": "U28C G45C", "self-cleavage": 0.406},
      {"variant": "U28C C30G", "self-cleavage": 0.322},
      {"variant": "U28C C30A", "self-cleavage": 0.826},
      {"variant": "U28C C30U", "self-cleavage": 0.573},
      {"variant": "U28A A37G", "self-cleavage": 0.325},
      {"variant": "U28A A37U", "self-cleavage": 0.895},
      {"variant": "U28A A37C", "self-cleavage": 0.398},
      {"variant": "G27U U28C", "self-cleavage": 0.38},
      {"variant": "G27U U28G", "self-cleavage": 0.507},
      {"variant": "G27U U28A", "self-cleavage": 0.552},
      {"variant": "U28C A34C", "self-cleavage": 0.684},
      {"variant": "U28C A34U", "self-cleavage": 0.723},
      {"variant": "U28C A34G", "self-cleavage": 0.934},
      {"variant": "U28G C29U", "self-cleavage": 0.77},
      {"variant": "U28G C29G", "self-cleavage": 0.547},
      {"variant": "U28G C29A", "self-cleavage": 0.878}
    ]}
  ]
}
